B1: Ang1: Angiopoietin 1, Tie2 ligand, overexpressed in the vasculature from the pTetOS-Ang1 transgene (protein, UniProt Q15389 16-498, looked up)
Angiopoietin-1: HIGCSNQRRSPENSGRRYNRIQHGQCAYTFILPEHDGNCRESTTDQYNTNALQRDAPHVEPDFSSQKLQHLEHVMENYTQWLQKLENYIVENMKSEMAQIQQNAVQNHTATMLEIGTSLLSQTAEQTRKLTDVETQVLNQTSRLEIQLLENSLSTYKLEKQLLQQTNEILKIHEKNSLLEHKILEMEGKHKEELDTLKEEKENLQGLVTRQTYIIQELEKQLNRATTNNSVLQKQQLELMDTVHNLVNLCTKEGVLLKGGKREEEKPFRDCADVYQAGFNKSGIYTIYINNMPEPKKVFCNMDVNGGGWTVIQHREDGSLDFQRGWKEYKMGFGNPSGEYWLGNEFIFAITSQRQYMLRIELMDWEGNRAYSQYDRFHIGNEKQNYRLYLKGHTGTAGKQSSLILHGADFSTKDADNDNCMCKCALMLTGGWWFDACGPSNLNGMFYTAGQNHGKLNGIKWHYFKGPSYSLRSTTMMIRPLDF

Test system: AT derm mice (pTek-tTA:pTetOS-Tek)
Test: Enforced expression of Ang1 or Ang2 in AT derm mice (triple transgenic)
Assay type: in vivo
Details: for atopic dermatitis phenotype (erythema, ear micro-haemorrhages, tail scaly plaque): transgenic overexpression in the vasculature of AT derm mice
Excerpt: Briefly, construction of the driver transgene, pTek-tTA, and the responder transgenes, pTetOS-Tek, pTetos-Ang1, and pTetos-Ang2 have been described previously. All transgenic lines were maintained and genotyped as previously described (Voskas et al. (2005) Am. J. Pathol. 166(3):843-855, Ward et al. (2004) Am. J. Pathol. 165(3):889-899, Bureau et al. (2006) Am. J. Physiol. Heart Circ. Physiol. 291(2):H948-965). Males were housed with a single female for 14 to 20 days and then separated into individual cages. CD1 mice (an outbred mouse line) were maintained in a barrier facility. All adult mice used in these studies were 2 to 6 months old.
The present inventors have previously shown that enforced overexpression of the Tie2 receptor in the vasculature results in an inflammatory skin phenotype in mice (FIG. 3A) that is consistent with many hallmarks of human atopic dermatitis/psoriasis (Voskas et al. (2005) Am. J. Pathol. 166(3), 843-855, Voskas et al. (2009) J. Leukoc. Biol. 84(1), 59-67). […] Using common mouse transgenic approaches, a system was devised in which the impact of enforced expression of Ang1 or Ang2 could be assessed in this mouse model of inflammatory skin disease. This is the first such system where the implications of Ang1 or Ang2 expression can be simultaneously addressed in a single pathological state. […] This was marked by a gross reduction in snout, conjunctiva, ear and paw erythema (FIGS. 3C-E).

Molecule | atopic dermatitis phenotype (erythema, ear micro-haemorrhages, tail scaly plaque) | epidermal hyperplasia and dermal leukocyte infiltration (histology) (triple transgenic mice)
Ang2: Angiopoietin 2, natural antagonist of Ang1, overexpressed from the pTetOS-Ang2 transgene | exacerbated all of the noted phenotypic hallmarks | –
B1 | dramatic amelioration of disease | resolution of epidermal hyperplasia

Source: patent US9186390B2, “Methods and uses of TIE2 binding and/or activating agents” (Sunnybrook Health Sciences Center, priority 2010, dated 2015)
